Target: T1, Human CD137 ECD (human)
T1 construct: also called 4-1BB
Assay: SPR, vs parent H183/L072

T1 sequence (chain, as listed by the source limits assumed): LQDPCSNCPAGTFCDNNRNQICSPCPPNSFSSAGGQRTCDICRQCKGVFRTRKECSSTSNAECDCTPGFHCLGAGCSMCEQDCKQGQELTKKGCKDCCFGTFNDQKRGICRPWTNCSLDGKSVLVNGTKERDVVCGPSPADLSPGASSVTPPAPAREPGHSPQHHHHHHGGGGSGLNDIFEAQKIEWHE

Row | fold change of affinity [fold] | Binder
1 | 0.9 | dBBDu183H S62V / dBBDu072L (antibody, name in Kabat numbering, V domains shown, as m1, one VH change) VH: QVQLVESGGGLVQPGRSLRLSCAASGFTFSNAWMHWVRQAPGKGLEWVAQIKDKGNAYAAYYAPVVKGRFTISRDDSKNSIYLQMNSLKTEDTAVYYCHYVHYASASTVLPAFGVDAWGQGTTVTVSS VL: DIVMTQSPLSLPVTPGEPASISCQASQELVHMNRNTYLHWYQQKPGQAPRLLIYKVSNRFPGVPDRFSGSGSGTDFTLKISRVEAEDVGVYYCAQGTSVPFTFGQGTKLEIK
2 | 0.6 | dBBDu183H S99T / dBBDu072L (antibody, name in Kabat numbering, V domains shown, as m1, one VH change) VH: QVQLVESGGGLVQPGRSLRLSCAASGFTFSNAWMHWVRQAPGKGLEWVAQIKDKGNAYAAYYAPSVKGRFTISRDDSKNSIYLQMNSLKTEDTAVYYCHYVHYATASTVLPAFGVDAWGQGTTVTVSS VL: DIVMTQSPLSLPVTPGEPASISCQASQELVHMNRNTYLHWYQQKPGQAPRLLIYKVSNRFPGVPDRFSGSGSGTDFTLKISRVEAEDVGVYYCAQGTSVPFTFGQGTKLEIK
3 | 1 | dBBDu183H S99G / dBBDu072L (antibody, name in Kabat numbering, V domains shown, as m1, one VH change) VH: QVQLVESGGGLVQPGRSLRLSCAASGFTFSNAWMHWVRQAPGKGLEWVAQIKDKGNAYAAYYAPSVKGRFTISRDDSKNSIYLQMNSLKTEDTAVYYCHYVHYAGASTVLPAFGVDAWGQGTTVTVSS VL: DIVMTQSPLSLPVTPGEPASISCQASQELVHMNRNTYLHWYQQKPGQAPRLLIYKVSNRFPGVPDRFSGSGSGTDFTLKISRVEAEDVGVYYCAQGTSVPFTFGQGTKLEIK
4 | 1.1 | dBBDu183H S99R / dBBDu072L (antibody, name in Kabat numbering, V domains shown, as m1, one VH change) VH: QVQLVESGGGLVQPGRSLRLSCAASGFTFSNAWMHWVRQAPGKGLEWVAQIKDKGNAYAAYYAPSVKGRFTISRDDSKNSIYLQMNSLKTEDTAVYYCHYVHYARASTVLPAFGVDAWGQGTTVTVSS VL: DIVMTQSPLSLPVTPGEPASISCQASQELVHMNRNTYLHWYQQKPGQAPRLLIYKVSNRFPGVPDRFSGSGSGTDFTLKISRVEAEDVGVYYCAQGTSVPFTFGQGTKLEIK
5 | 0.9 | dBBDu183H V63E / dBBDu072L (antibody, name in Kabat numbering, V domains shown, as m1, one VH change) VH: QVQLVESGGGLVQPGRSLRLSCAASGFTFSNAWMHWVRQAPGKGLEWVAQIKDKGNAYAAYYAPSEKGRFTISRDDSKNSIYLQMNSLKTEDTAVYYCHYVHYASASTVLPAFGVDAWGQGTTVTVSS VL: DIVMTQSPLSLPVTPGEPASISCQASQELVHMNRNTYLHWYQQKPGQAPRLLIYKVSNRFPGVPDRFSGSGSGTDFTLKISRVEAEDVGVYYCAQGTSVPFTFGQGTKLEIK
6 | 0.7 | dBBDu183H S62Y / dBBDu072L (antibody, name in Kabat numbering, V domains shown, as m1, one VH change) VH: QVQLVESGGGLVQPGRSLRLSCAASGFTFSNAWMHWVRQAPGKGLEWVAQIKDKGNAYAAYYAPYVKGRFTISRDDSKNSIYLQMNSLKTEDTAVYYCHYVHYASASTVLPAFGVDAWGQGTTVTVSS VL: DIVMTQSPLSLPVTPGEPASISCQASQELVHMNRNTYLHWYQQKPGQAPRLLIYKVSNRFPGVPDRFSGSGSGTDFTLKISRVEAEDVGVYYCAQGTSVPFTFGQGTKLEIK
7 | 1.5 | dBBDu183H S99H / dBBDu072L (antibody, name in Kabat numbering, V domains shown, as m1, one VH change) VH: QVQLVESGGGLVQPGRSLRLSCAASGFTFSNAWMHWVRQAPGKGLEWVAQIKDKGNAYAAYYAPSVKGRFTISRDDSKNSIYLQMNSLKTEDTAVYYCHYVHYAHASTVLPAFGVDAWGQGTTVTVSS VL: DIVMTQSPLSLPVTPGEPASISCQASQELVHMNRNTYLHWYQQKPGQAPRLLIYKVSNRFPGVPDRFSGSGSGTDFTLKISRVEAEDVGVYYCAQGTSVPFTFGQGTKLEIK
8 | 0.9 | dBBDu183H V63F / dBBDu072L (antibody, name in Kabat numbering, V domains shown, as m1, one VH change) VH: QVQLVESGGGLVQPGRSLRLSCAASGFTFSNAWMHWVRQAPGKGLEWVAQIKDKGNAYAAYYAPSFKGRFTISRDDSKNSIYLQMNSLKTEDTAVYYCHYVHYASASTVLPAFGVDAWGQGTTVTVSS VL: DIVMTQSPLSLPVTPGEPASISCQASQELVHMNRNTYLHWYQQKPGQAPRLLIYKVSNRFPGVPDRFSGSGSGTDFTLKISRVEAEDVGVYYCAQGTSVPFTFGQGTKLEIK
9 | 0.6 | dBBDu183H S99Q / dBBDu072L (antibody, name in Kabat numbering, V domains shown, as m1, one VH change) VH: QVQLVESGGGLVQPGRSLRLSCAASGFTFSNAWMHWVRQAPGKGLEWVAQIKDKGNAYAAYYAPSVKGRFTISRDDSKNSIYLQMNSLKTEDTAVYYCHYVHYAQASTVLPAFGVDAWGQGTTVTVSS VL: DIVMTQSPLSLPVTPGEPASISCQASQELVHMNRNTYLHWYQQKPGQAPRLLIYKVSNRFPGVPDRFSGSGSGTDFTLKISRVEAEDVGVYYCAQGTSVPFTFGQGTKLEIK
10 | 1.2 | dBBDu183H S99K / dBBDu072L (antibody, name in Kabat numbering, V domains shown, as m1, one VH change) VH: QVQLVESGGGLVQPGRSLRLSCAASGFTFSNAWMHWVRQAPGKGLEWVAQIKDKGNAYAAYYAPSVKGRFTISRDDSKNSIYLQMNSLKTEDTAVYYCHYVHYAKASTVLPAFGVDAWGQGTTVTVSS VL: DIVMTQSPLSLPVTPGEPASISCQASQELVHMNRNTYLHWYQQKPGQAPRLLIYKVSNRFPGVPDRFSGSGSGTDFTLKISRVEAEDVGVYYCAQGTSVPFTFGQGTKLEIK
11 | 0.8 | dBBDu183H V63K / dBBDu072L (antibody, name in Kabat numbering, V domains shown, as m1, one VH change) VH: QVQLVESGGGLVQPGRSLRLSCAASGFTFSNAWMHWVRQAPGKGLEWVAQIKDKGNAYAAYYAPSKKGRFTISRDDSKNSIYLQMNSLKTEDTAVYYCHYVHYASASTVLPAFGVDAWGQGTTVTVSS VL: DIVMTQSPLSLPVTPGEPASISCQASQELVHMNRNTYLHWYQQKPGQAPRLLIYKVSNRFPGVPDRFSGSGSGTDFTLKISRVEAEDVGVYYCAQGTSVPFTFGQGTKLEIK
12 | 0.9 | dBBDu183H V63D / dBBDu072L (antibody, name in Kabat numbering, V domains shown, as m1, one VH change) VH: QVQLVESGGGLVQPGRSLRLSCAASGFTFSNAWMHWVRQAPGKGLEWVAQIKDKGNAYAAYYAPSDKGRFTISRDDSKNSIYLQMNSLKTEDTAVYYCHYVHYASASTVLPAFGVDAWGQGTTVTVSS VL: DIVMTQSPLSLPVTPGEPASISCQASQELVHMNRNTYLHWYQQKPGQAPRLLIYKVSNRFPGVPDRFSGSGSGTDFTLKISRVEAEDVGVYYCAQGTSVPFTFGQGTKLEIK
13 | 1.3 | dBBDu183H V63G / dBBDu072L (antibody, name in Kabat numbering, V domains shown, as m1, one VH change) VH: QVQLVESGGGLVQPGRSLRLSCAASGFTFSNAWMHWVRQAPGKGLEWVAQIKDKGNAYAAYYAPSGKGRFTISRDDSKNSIYLQMNSLKTEDTAVYYCHYVHYASASTVLPAFGVDAWGQGTTVTVSS VL: DIVMTQSPLSLPVTPGEPASISCQASQELVHMNRNTYLHWYQQKPGQAPRLLIYKVSNRFPGVPDRFSGSGSGTDFTLKISRVEAEDVGVYYCAQGTSVPFTFGQGTKLEIK
14 | 1 | dBBDu183H V63H / dBBDu072L (antibody, name in Kabat numbering, V domains shown, as m1, one VH change) VH: QVQLVESGGGLVQPGRSLRLSCAASGFTFSNAWMHWVRQAPGKGLEWVAQIKDKGNAYAAYYAPSHKGRFTISRDDSKNSIYLQMNSLKTEDTAVYYCHYVHYASASTVLPAFGVDAWGQGTTVTVSS VL: DIVMTQSPLSLPVTPGEPASISCQASQELVHMNRNTYLHWYQQKPGQAPRLLIYKVSNRFPGVPDRFSGSGSGTDFTLKISRVEAEDVGVYYCAQGTSVPFTFGQGTKLEIK
15 | 0.5 | dBBDu183H S99Y / dBBDu072L (antibody, name in Kabat numbering, V domains shown, as m1, one VH change) VH: QVQLVESGGGLVQPGRSLRLSCAASGFTFSNAWMHWVRQAPGKGLEWVAQIKDKGNAYAAYYAPSVKGRFTISRDDSKNSIYLQMNSLKTEDTAVYYCHYVHYAYASTVLPAFGVDAWGQGTTVTVSS VL: DIVMTQSPLSLPVTPGEPASISCQASQELVHMNRNTYLHWYQQKPGQAPRLLIYKVSNRFPGVPDRFSGSGSGTDFTLKISRVEAEDVGVYYCAQGTSVPFTFGQGTKLEIK
16 | 0.9 | dBBDu183H V63N / dBBDu072L (antibody, name in Kabat numbering, V domains shown, as m1, one VH change) VH: QVQLVESGGGLVQPGRSLRLSCAASGFTFSNAWMHWVRQAPGKGLEWVAQIKDKGNAYAAYYAPSNKGRFTISRDDSKNSIYLQMNSLKTEDTAVYYCHYVHYASASTVLPAFGVDAWGQGTTVTVSS VL: DIVMTQSPLSLPVTPGEPASISCQASQELVHMNRNTYLHWYQQKPGQAPRLLIYKVSNRFPGVPDRFSGSGSGTDFTLKISRVEAEDVGVYYCAQGTSVPFTFGQGTKLEIK
17 | 1.3 | dBBDu183H V63Q / dBBDu072L (antibody, name in Kabat numbering, V domains shown, as m1, one VH change) VH: QVQLVESGGGLVQPGRSLRLSCAASGFTFSNAWMHWVRQAPGKGLEWVAQIKDKGNAYAAYYAPSQKGRFTISRDDSKNSIYLQMNSLKTEDTAVYYCHYVHYASASTVLPAFGVDAWGQGTTVTVSS VL: DIVMTQSPLSLPVTPGEPASISCQASQELVHMNRNTYLHWYQQKPGQAPRLLIYKVSNRFPGVPDRFSGSGSGTDFTLKISRVEAEDVGVYYCAQGTSVPFTFGQGTKLEIK
18 | 1 | dBBDu183H T100bS / dBBDu072L (antibody, name in Kabat numbering, V domains shown, as m1, one VH change) VH: QVQLVESGGGLVQPGRSLRLSCAASGFTFSNAWMHWVRQAPGKGLEWVAQIKDKGNAYAAYYAPSVKGRFTISRDDSKNSIYLQMNSLKTEDTAVYYCHYVHYASASSVLPAFGVDAWGQGTTVTVSS VL: DIVMTQSPLSLPVTPGEPASISCQASQELVHMNRNTYLHWYQQKPGQAPRLLIYKVSNRFPGVPDRFSGSGSGTDFTLKISRVEAEDVGVYYCAQGTSVPFTFGQGTKLEIK
19 | 0.3 | dBBDu183H T100bQ / dBBDu072L (antibody, name in Kabat numbering, V domains shown, as m1, one VH change) VH: QVQLVESGGGLVQPGRSLRLSCAASGFTFSNAWMHWVRQAPGKGLEWVAQIKDKGNAYAAYYAPSVKGRFTISRDDSKNSIYLQMNSLKTEDTAVYYCHYVHYASASQVLPAFGVDAWGQGTTVTVSS VL: DIVMTQSPLSLPVTPGEPASISCQASQELVHMNRNTYLHWYQQKPGQAPRLLIYKVSNRFPGVPDRFSGSGSGTDFTLKISRVEAEDVGVYYCAQGTSVPFTFGQGTKLEIK
20 | 0.1 | dBBDu183H T100bN / dBBDu072L (antibody, name in Kabat numbering, V domains shown, as m1, one VH change) VH: QVQLVESGGGLVQPGRSLRLSCAASGFTFSNAWMHWVRQAPGKGLEWVAQIKDKGNAYAAYYAPSVKGRFTISRDDSKNSIYLQMNSLKTEDTAVYYCHYVHYASASNVLPAFGVDAWGQGTTVTVSS VL: DIVMTQSPLSLPVTPGEPASISCQASQELVHMNRNTYLHWYQQKPGQAPRLLIYKVSNRFPGVPDRFSGSGSGTDFTLKISRVEAEDVGVYYCAQGTSVPFTFGQGTKLEIK
21 | 0.8 | dBBDu183H S62W / dBBDu072L (antibody, name in Kabat numbering, V domains shown, as m1, one VH change) VH: QVQLVESGGGLVQPGRSLRLSCAASGFTFSNAWMHWVRQAPGKGLEWVAQIKDKGNAYAAYYAPWVKGRFTISRDDSKNSIYLQMNSLKTEDTAVYYCHYVHYASASTVLPAFGVDAWGQGTTVTVSS VL: DIVMTQSPLSLPVTPGEPASISCQASQELVHMNRNTYLHWYQQKPGQAPRLLIYKVSNRFPGVPDRFSGSGSGTDFTLKISRVEAEDVGVYYCAQGTSVPFTFGQGTKLEIK

Reference: patent US20210388087A1 (Chugai, published 2021)
